Experimental data: publication PMC8649778

Target: APRc_(110–231)His, soluble domain of APRc fused to a C-terminal His tag (Rickettsia conorii) (UniProt Q92FY8)
Assay: shift of migration in nonreducing SDS-PAGE with Western blot

Substance: APRc_(110–231)His, soluble domain of APRc fused to a C-terminal His tag (from UniProt Q92FY8 110-231) (domain or fragment)
- stoichiometry N: 2
